This note sets out measurements from patent US20220242958A1, “BISPECIFIC NANOBODIES” (Ablynx N.V., priority 2013, published 2022).

Where two headings read alike, the source gives them in different places.

Assay [1] deals with T1, CXCR4 on Caki-CXCR4 cells (Homo sapiens, UniProt P61073).
T1 construct: expressed in transfected cells; host or cells: Caki-CXCR4
As to the kind of experiment: Biotinylated SDF-1 displacement on Caki-CXCR4 cells (flow cytometry). Type of assay: binding. To be noted: 30 nM biotinylated SDF-1; read-out: Ligand competition Biotin-SDF-1 IC50. Here is the method: CXCR4 Nanobodies were analysed for their ability to compete with the ligand CXCL12 (or SDF-1a) for receptor binding, by displacement of biotinylated SDF-1 on Caki-CXCR4 cells in flow cytometry. To this end serial dilutions of Nanobodies were incubated with 30 nM of biotinylated SDF-1 (R&D Systems Fluorokine kit) on cells, after which ligand binding was visualised using extravidin-PE. The biotin-SDF-1 competitor concentration used in this assay was below the EC50 value obtained in dose-titration, where IC50 values should reflect the Ki.

The target of assay [2] is T2, CXCR4 on Jurkat E6-1 cells (Homo sapiens, UniProt P61073).
T2 construct: endogenous in cells; host or cells: Jurkat E6-1
T2 sequence (P61073 whole entry): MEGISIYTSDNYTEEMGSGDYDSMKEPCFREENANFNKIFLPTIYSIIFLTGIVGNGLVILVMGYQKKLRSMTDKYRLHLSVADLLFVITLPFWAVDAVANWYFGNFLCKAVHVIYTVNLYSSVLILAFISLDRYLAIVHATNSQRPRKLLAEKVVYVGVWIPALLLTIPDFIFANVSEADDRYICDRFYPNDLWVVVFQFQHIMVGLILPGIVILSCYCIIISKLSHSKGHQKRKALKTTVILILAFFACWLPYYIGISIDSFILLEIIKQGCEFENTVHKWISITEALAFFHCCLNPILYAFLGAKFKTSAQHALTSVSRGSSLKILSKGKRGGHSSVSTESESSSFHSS
As to the kind of experiment: CXCL12/SDF-1a induced chemotaxis of Jurkat E6-1 cells. Format: cell-based. Here is the method:
(§1) To verify if bispecific CXCR4-IL3Ra polypeptides show increased affinity and potency on cells expressing both receptors, a CXCR4-dependent functional assay was carried out. To this end SDF-1a dependent chemotaxis on Jurkat E6-1 (CXCR4+/IL3Ra−), and MOLM-13 cells (CXCR4+/IL3Ra+) was performed for direct comparison of cells expressing both or only one receptor. Since the functional blockade is only mediated via CXCR4, avidity by the simultaneous binding of the anti-IL3Ra Nanobody® is expected to translate into increased potency in inhibition of chemotaxis.
Bispecific polypeptides were analyzed for inhibition of CXCL12-induced chemotaxis on cells endogenously expressing CXCR4. As chemoattractant a concentration of 750 pM SDF-1a was used on 100,000 cells/well for the Jurkat cell line, and 500,000 cells/well for the MOLM-13 cell line. On each plate the corresponding monovalent CXCR4 Nanobody was included as reference, allowing to calculate the fold increase of the bispecific within each plate. As additional control 1:1 mixtures of monovalent Nanobodies were included. In Table 9 the respective IC50 values are shown (average of n=3 experiments).
To verify if bispecific CXCR4-IL-3Ra polypeptides show increased affinity and potency on cells expressing both receptors, a CXCR4-dependent functional assay was done. Since MOLM-13 cells express CD4 in conjunction with CXCR4 and CD123, the same experimental set-up was used as described for the CXCR4-CD123 bispecific Nanobodies (see: Example 1.5.5).
Dose-dependent inhibition of CXCL12-induced chemotaxis by the panel of bispecific CD4-CXCR4 Nanobodies was determined on Jurkat (CXCR4+/CD4 low), and Molm-13 cells (CXCR4++/CD4++). As reference anti-CXCR4 antibody 12G5 was included on each plate. […] Remarkably, bispecific constructs in the inverse orientation were able to block CXCR4 function, despite their reduced affinity for CXCR4 due to the unfavourable position, although the blockade was partial. The much larger potency increases observed with Nanobodies targeting the CD4 and CXCR4 combination is most likely related to the higher relative expression levels of CD4 compared to CD123 on the Molm-13 cells.

For a further assay, the target named is T3, CXCR4 on MOLM-13 cells (Homo sapiens, UniProt P61073).
T3 construct: endogenous in cells; host or cells: MOLM-13
T3 sequence (P61073 whole entry): as above
As to the kind of experiment: CXCL12/SDF-1a induced chemotaxis of MOLM-13 cells. Format: cell-based. Particulars: average of 2-3 independent experiments; unit inferred; read-out: MOLM-13 IC50, inhibition of CXCL-12 induced chemotaxis. The method, then:
as §1
Bispecific polypeptides were analyzed for inhibition of CXCL12-induced chemotaxis on cells endogenously expressing CXCR4. As chemoattractant a concentration of 750 pM SDF-1a was used on 100,000 cells/well for the Jurkat cell line, and 500,000 cells/well for the MOLM-13 cell line. On each plate the corresponding monovalent CXCR4 Nanobody was included as reference, allowing to calculate the fold increase of the bispecific within each plate. As additional control 1:1 mixtures of monovalent Nanobodies were included. In Table 9 the respective IC50 values are shown (average of n=3 experiments). […]
Dose-dependent inhibition of CXCL12-induced chemotaxis by the panel of bispecific CD4-CXCR4 Nanobodies was determined on Jurkat (CXCR4+/CD4 low), and Molm-13 cells (CXCR4++/CD4++). […]

Assay [3] addresses T1, CXCR4 on Caki-CXCR4 cells. As to the kind of experiment: Binding of CXCR4 Nanobodies to Caki-CXCR4 cells.
The target in the next assay is T4, CXCR4 on Jurkat cells (Homo sapiens, UniProt P61073).
T4 construct: endogenous in cells; host or cells: Jurkat E6-1
T4 sequence (P61073 whole entry): as above
As to the kind of experiment: Binding of CXCR4 Nanobodies to Jurkat cells.

In the next assay the target is T5, CXCR4-VLP (Homo sapiens, UniProt P61073).
T5 construct: purchased Integral Molecular (printed 'Molecular Integral')
T5 sequence (P61073 whole entry): as above
As to the kind of experiment: ELISA binding to CXCR4 viral lipoparticles (VLP). The method, then: Binding of CXCR4 Nanobodies to CXCR4-expressing cells was assessed on different cell lines, to assess EC50 values. For CXCR4 the membrane insertion is needed for proper conformation and functionality of the receptor. Therefore CXCR4 Nanobodies were characterized for binding to viral lipoparticles (VLP; Molecular Integral) expressing CXCR4 versus control lipoparticles in ELISA. To this end VLPs were coated at 0.5 U/well overnight at 4° C. using anti-myc antibodies for detection. Over all different binding assays, Nanobody 14D09 always exerted lower binding affinity than 14A02, as indicated by a shift in EC50 values. The results are depicted in FIG. 1.3.
To assess if the formatting into bispecific constructs affected the target binding capacity of the individual Nanobodies, the bispecific Nanobodies were analysed for binding to recombinant IL-3Ra (R&D Systems) in ELISA and to CXCR4 viral lipoparticles (Integral Molecular). […] However, CXCR4 binding of constructs with either CXCR4#1 or CXCR4#2 is retained only in one orientation, when the CXCR4 Nanobody is at the N-terminal position. The bispecific constructs where the CXCR4 Nanobody is positioned C-terminal show a 50-100-fold loss in binding to CXCR4-VLPs.
For orientation: An ELISA detects its analyte on a solid surface through an enzyme-linked reagent.

T1 sequence (P61073 whole entry): as above

B1: CXCR4#1: anti-CXCR4 Nanobody, SEQ ID NO: 1 (protein)
VHH: EVQLVESGGGLVQAGGSLRLSCVASGISSSKRNMGWYRQAPGKQRESVATISSGGNKDYTDAVKDRFTISRDTTKNTVYLQMNSLKPEDTAVYYCKIEAGTGWATRRGYTYWGQGTQVTVSS
The term IC50 denotes the concentration that gives 50% inhibition. As a reminder, the EC50 is the midpoint of the concentration-response curve. As for B1, the IC50 in assay [1] came out at 18.4 nM; in assay [2] (average of 2-3 independent experiments, unit inferred, read-out: Jurkat E6-1 IC50, inhibition of CXCL-12 induced chemotaxis), 10.4 nM; in assay [2] (cell line not stated, read-out: IC50 of monovalent CXCR4 Nanobody (chemotaxis potency)) it was 10 nM; in assay [2] (monovalent CXCR4 Nanobodies, Table 4, read-out: Chemotaxis Jurkat IC50), 11 nM; in the assay with CXCR4 on MOLM-13 cells, 8.62 nM. Further, the EC50 in assay [3] was 9.9 nM; with CXCR4 on Jurkat cells, 11 nM; with CXCR4-VLP, 7.28 nM.
